B1: BBSome complex member BBS1 (Homo sapiens), Q8NFJ9 (parent)
chain: MAAASSSDSDACGAESNEANSKWLDAHYDPMANIHTFSACLALADLHGDGEYKLVVGDLGPGGQQPRLKVLKGPLVMTESPLPALPAAAATFLMEQHEPRTPALALASGPCVYVYKNLRPYFKFSLPQLPPNPLEQDLWNQAKEDRIDPLTLKEMLESIRETAEEPLSIQSLRFLQLELSEMEAFVNQHKSNSIKRQTVITTMTTLKKNLADEDAVSCLVLGTENKELLVLDPEAFTILAKMSLPSVPVFLEVSGQFDVEFRLAAACRNGNIYILRRDSKHPKYCIELSAQPVGLIRVHKVLVVGSTQDSLHGFTHKGKKLWTVQMPAAILTMNLLEQHSRGLQAVMAGLANGEVRIYRDKALLNVIHTPDAVTSLCFGRYGREDNTLIMTTRGGGLIIKILKRTAVFVEGGSEVGPPPAQAMKLNVPRKTRLYVDQTLREREAGTAMHRAFQTDLYLLRLRAARAYLQALESSLSPLSTTAREPLKLHAVVQGLGPTFKLTLHLQNTSTTRPVLGLLVCFLYNEALYSLPRAFFKVPLLVPGLNYPLETFVESLSNKGISDIIKVLVLREGQSAPLLSAHVNMPGSEGLAAA

Variants of: B1
Conditions: with Lepr

effect of a mutation on the interaction | Variant
decreasing interaction | M390R

From IntAct's records for PubMed 19150989
